Assay results reported in US20250355001A1, “METHOD FOR DETECTING A TAU PROTEIN FRAGMENT IN A SAMPLE” (GTINVENT LIMITED, priority 2022, published 2025).

B1: 3bD11: anti-tau clone, Table 10; SEQ ID NO: 637 (protein)
scFv: RVRLQGSGPSLVKPSQTLSLTCTVSGFSFDSYYVGWVRQAPGKALEWLGNIYSTGRAFYNPALKSRLSITRDTSKSQVSLSVSSVTIEDTALYYCVRGSYYHGGGNGMVDFFDYWSPGLLVTVSSEGKSSGASGESKVDDQVVRTQPSSVSGSLGQRVSITCSGSSSNVGYGNYVGWFQQVPGSAPKLLIYAATSRASGVPDRFSGSRSGNTATLTIDSLQAEDEADYYCSSYQRGNTGVFGSGTRLTVLG
B2: MD9: anti-tau clone, Table 10; SEQ ID NO: 373 (protein)
scFv: QVRLQESGPSLVKSSQTLSLTCTVSGFSLTRESIAWVRQAPGKVPEWLGGVGIDGTSYYSPALKSRLSITRDTSKSQASLSLSSVATEDTAMYYCARNYIDFEYWGPGLLVTVSSEGKSSGASGESKVDDQAVLTQLSSVSGSLGQRISITCSGSSSNVGIYDVSWFQQLPGSGLRTVIYGTNNRPSGVPDRFSGSRSGNTATLTISSLQSEDEAIYYCAAGDSSTIAVFGSGTRLTVLG
modifications: MD9 amino acid sequence

How the values were obtained:
[1] = target: T1, htau40 (Homo sapiens, UniProt P10636); test: Biacore X100 SPR kinetics of anti-tau mAbs on immobilised htau40; format: binding; conditions: second Table 25; newly converted mAbs, hT40
T1 construct: Full length tau (hT40)
Experimental: For anti-tau mAb SPR measurements, htau40 was conjugated to the surface of a CM5 sensor chip using amine coupling as explained previously. Briefly, 2 μg/mL htau40 in 10 mM Sodium acetate buffer (pH 4.0) was passed over the activated chip surface (EDC/NHS) in flow cell 2 for a period for 45 s followed by blocking with 1 M ethanolamine-HCl PH 8.5. Flow cell 1 was set up as reference control and blocked simultaneously. Final immobilisation level of htau40 (Rmax) was approximately 250 RU. Following a minimum of three start-up cycles, increasing concentrations (0.78 nM-25 nM) of the mAb in HBS-EP+ buffer was added at a rate of […] to the chip. The mAb was added for a 120 s association period and 600 s dissociation period followed by a regeneration cycle of 30 s injection of glycine buffer pH 1.5 in between each cycle. Binding responses were analysed in Biacore X100 evaluation software and data fitted to a 1:1 binding model to obtain kinetic and affinity characterisation.
For anti-tau mAb SPR measurements (Biacore X100™) and epitope mapping, the same methodologies described above (see Example 16) were followed. Kinetic rates and equilibrium binding constants of additional anti-tau mAbs and the regions recognised on hT40 are given in the Table 25 below

[2] = system: hT40, dGA, dGAE and truncated tau fragments; test: Binding ELISA / epitope mapping of anti-tau scAbs with truncated tau proteins and 13mer peptides; set-up: species or system human; conditions: for hT40 binding region: second Table 25, mAb format
Experimental: A series of binding ELISA was performed using various truncated versions of the tau protein and 13mer peptide libraries spanning the entire hT40 molecule for mapping the epitopes of anti-tau scAbs (Full list of protein antigens used is given in Table 14). In general, ELISA plates were coated with 1 μg/ml hT40 or dGA or dGAE or other truncated versions of the protein and in the case of biotinylated peptides, plates were coated with 5 μg/ml Streptavidin followed by 1 μg/ml biotinylated peptide. The plates were blocked with 2% MPBS and scAb samples added at desired starting concentrations and double diluted across the plate. Binding was detected using anti-Human C Kappa HRP conjugated secondary antibody and the resulting immunoreaction was developed and absorbance values measured as described above.
Selected E specific scAbs and their specific binding to dGAE is shown below (FIG. 8A-E).
Similarly, dGA binding ‘NS’, ‘S’ and ‘M’ group scAbs were subjected to further antigen binding ELISA using shorter tau proteins and biotinylated 13mer peptides as shown below (FIG. 10A-F) and (FIG. 11A-R).

[3] = residue numbers of SEQ ID NO: 1 (hT40), CDR Tables 1-11

T1 sequence (P10636 1-441 isoform P10636-8): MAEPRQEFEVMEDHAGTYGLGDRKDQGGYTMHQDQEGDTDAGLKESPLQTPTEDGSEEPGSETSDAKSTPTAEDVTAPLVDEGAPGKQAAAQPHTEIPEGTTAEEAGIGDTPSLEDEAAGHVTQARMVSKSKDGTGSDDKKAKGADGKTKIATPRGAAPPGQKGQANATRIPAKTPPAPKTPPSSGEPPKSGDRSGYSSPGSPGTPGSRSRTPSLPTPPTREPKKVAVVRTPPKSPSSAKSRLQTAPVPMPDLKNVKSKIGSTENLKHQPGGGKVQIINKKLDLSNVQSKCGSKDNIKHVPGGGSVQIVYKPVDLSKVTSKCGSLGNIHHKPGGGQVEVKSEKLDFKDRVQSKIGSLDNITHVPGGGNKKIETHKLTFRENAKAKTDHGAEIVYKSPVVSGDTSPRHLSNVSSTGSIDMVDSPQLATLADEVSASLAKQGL

| Molecule | ka [1] | kd [1] | Epitope [2, 3] | hT40 binding region [2] | Tau proteins/fragments with positive scAb reactivity ([2]; Table 16, NS, S and M clones, binding ELISA) | Shortest region bound on hT40 ([2]; Table 16, NS, S and M clones, incl. 13mer peptides) | Epitope ([2]; Table 26 summary, top scAbs, residues of hT40) |
| --- | --- | --- | --- | --- | --- | --- | --- |
| B1 | 2.671e+06 M⁻¹ s⁻¹ | 0.003979 s⁻¹ | 37-49 | 37-49 |  |  |  |
| B2 | 66200 M⁻¹ s⁻¹ | 0.001462 s⁻¹ | 373-385 | 373-385 | hT40, 297-390 (dGA), 297-391 (dGAE), 369-390, 369-391 | 373-385 | 373-385 |
